Measured values from patent publication US20180371066A1 (C2N DIAGNOSTICS, published 2018).

Key:
human tau [1] = target: T1, human tau (human, UniProt P10636 2-60); assay: competition ELISA on plate-coated human tau against biotinylated HJ8.5; IC50 normalised to chimeric HJ8.5; column C2N Run 1
T1 construct: also called soluble human tau; human tau protein

human tau [2] = target: T1, human tau; assay: competition ELISA on plate-coated human tau against biotinylated HJ8.5; IC50 normalised to chimeric HJ8.5; column C2N Run 2
[3] = target: T2, recombinant human Tau-412 protein (human, UniProt P10636-7 1-412); assay: SPR Biacore T200, mAb captured on Protein A, Tau-412 analyte, 1-to-1 model, chip A11/2
T2 construct: Analyte of the SPR study; also called human tau (1N4R, 412 amino acids)
Description: (§1) Kinetic data was obtained at a flow rate of 40 μL/min to minimize any potential mass transfer effects. Two repeats of the blank (no antigen) and the 2.5 nM concentration of the analyte were programmed into the kinetic run in order to check the stability of both the surface and analyte over the kinetic cycles. For the initial kinetic runs, 2-fold dilutions of Tau-412 from 40 nM to 0.156 nM were run. For kinetic analysis and on subsequent runs, an analyte range of 20 nM to 0.625 nM was selected. This range covered multiple analyte concentrations both above and below the reported KD.
(§2) The association phase was monitored for 500 seconds to allow some of the higher concentrations of analyte to reach steady state. In order to observe a sufficient signal decrease (>10%) during the dissociation phase of the kinetic cycle, dissociation was measured for 1200 seconds. As discussed in Section 5, the Fcs were allowed to stabilize for 600 seconds after each regeneration step. The signal from the reference channel Fc1 was subtracted from that of Fc2, Fc3 and Fc4.
(§3) The kinetic parameters for the interaction of Tau-412 with the 7 mAbs as measured using the Protein A capture system on the Biacore T200 are shown in Table F-2. To correct for differences in the capture level of the antibody between each binding cycle, a local Rₘₐₓ parameter was used in the 1-to-1 binding model. Kinetic analysis was performed in three independent runs using fresh preparations of Tau-412 and antibody. Run 1 and runs 2+3 used different vials of the antigen Tau-412; therefore the reported errors associated with the mean response probably represent variation in preparation of the analyte and differences in assay set-up and run. From run 1 to runs 2+3, the amount of antibody injected was adjusted to try to get closer to the target 300 RU capture levels.

human tau [4] = target: T1, human tau; assay: competition ELISA on plate-coated human tau against biotinylated HJ8.5; IC50 normalised to chimeric HJ8.5; column External
[5] = target: T2, recombinant human Tau-412 protein; assay: SPR Biacore T200, Protein A capture, mean of the VH2/VK2 runs
Description: as §1, §2, §3
Target sequence in this assay (P10636 other isoform, or with tags, fused parts or gaps limits assumed): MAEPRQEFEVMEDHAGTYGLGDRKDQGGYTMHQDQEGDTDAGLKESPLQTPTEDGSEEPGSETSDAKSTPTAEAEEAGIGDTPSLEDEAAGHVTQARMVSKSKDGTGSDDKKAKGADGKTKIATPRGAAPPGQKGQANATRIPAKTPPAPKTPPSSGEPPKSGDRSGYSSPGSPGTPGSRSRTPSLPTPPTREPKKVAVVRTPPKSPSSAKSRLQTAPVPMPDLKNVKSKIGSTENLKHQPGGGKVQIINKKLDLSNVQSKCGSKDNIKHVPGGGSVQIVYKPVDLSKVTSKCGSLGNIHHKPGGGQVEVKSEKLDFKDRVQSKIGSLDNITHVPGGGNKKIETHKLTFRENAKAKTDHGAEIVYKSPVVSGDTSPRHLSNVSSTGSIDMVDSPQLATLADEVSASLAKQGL

[6] = target: T2, recombinant human Tau-412 protein; assay: SPR Biacore T200, mAb captured on Protein A, Tau-412 analyte, 1-to-1 model, chip A11/1
Description: as §1, §2, §3

[7] = target: T2, recombinant human Tau-412 protein; assay: SPR Biacore T200, Protein A capture, mean of the VH3/VK2 runs
Description: as §1, §2, §3
Target sequence in this assay (P10636 other isoform, or with tags, fused parts or gaps limits assumed): as above

[8] = target: T2, recombinant human Tau-412 protein; assay: SPR Biacore T200, Protein A capture, mean of the VH3/VK3 runs
Description: as §1, §2, §3

[9] = target: T2, recombinant human Tau-412 protein; assay: SPR Biacore T200, Protein A capture, mean of the VH2/VK3 runs
Description: as §1, §2, §3
Target sequence in this assay (P10636 other isoform, or with tags, fused parts or gaps limits assumed): as above

[10] = target: T2, recombinant human Tau-412 protein; assay: SPR Biacore T200, Protein A capture, mean of the VH1/VK3 runs
Description: as §1, §2, §3
Target sequence in this assay (P10636 other isoform, or with tags, fused parts or gaps limits assumed): as above

T1 sequence (P10636 2-60 limits assumed): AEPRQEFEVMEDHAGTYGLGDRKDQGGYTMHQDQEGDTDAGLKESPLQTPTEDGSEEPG

Row | IC50 (Relative to Chimera) (human tau [1]) | IC50 (Relative to Chimera) (human tau [2]) | Kd [3] | koff [3] | kon [3] | IC50 (Relative to Chimera) (human tau [4]) | Kd [6] | koff [6] | kon [6] | Binder | further results
1 | 1.37 relative to Chimera | 0.85 relative to Chimera | 2.06 nM | 0.000587 s⁻¹ | 284000 M⁻¹ s⁻¹ | 1.12 relative to Chimera | 2.4 nM | 0.000628 s⁻¹ | 262000 M⁻¹ s⁻¹ | VH2/VK2 humanized anti-tau antibody (antibody, human IgG4 S228P, kappa, V domains shown, Humanized variant of HJ8.5) VH: EVKVVESGGGLVQPGGSLKLSCVVSGFTFSNYWVNWVRQAPGKGLEWVAQIRLKSDNYATHYEESVKGRFTISRDDSKSSVYLQMNSLRAEDTGIYYCTNWEDYWGQGTTVTVSS VL: DIVLTQSPDSLAVSLGERATISCRASQSVSTSRYSYIHWYQQKPGQPPKLLIKYASNLESGVPSRFSGSGSGTDFTLNIHPLEPEDFATYYCHHSWEIPLTFGQGTKLEIKR | Kd [5]: 2.23 nM; koff [5]: 0.000608 s⁻¹; kon [5]: 273000 M⁻¹ s⁻¹
2 | 0.81 relative to Chimera | 1.28 relative to Chimera | 1.67 nM | 0.000485 s⁻¹ | 290000 M⁻¹ s⁻¹ | 0.94 relative to Chimera | 2.08 nM | 0.000546 s⁻¹ | 262000 M⁻¹ s⁻¹ | VH3/VK2 humanized anti-tau antibody (antibody, human IgG4 S228P, kappa, V domains shown, Humanized variant of HJ8.5) VH: EVQVVESGGGLVQPGGSLKLSCVVSGFTFSNYWVNWVRQAPGKGLEWVAQIRLKSDNYATHYEESVKGRFTISRDDSKNSVYLQMNSLRAEDTAIYYCTNWEDYWGQGTTVTVSS VL: DIVLTQSPDSLAVSLGERATISCRASQSVSTSRYSYIHWYQQKPGQPPKLLIKYASNLESGVPSRFSGSGSGTDFTLNIHPLEPEDFATYYCHHSWEIPLTFGQGTKLEIKR | Kd [7]: 1.88 nM; koff [7]: 0.000515 s⁻¹; kon [7]: 276000 M⁻¹ s⁻¹
3 | 1.49 relative to Chimera | 1.11 relative to Chimera |  |  |  | 0.84 relative to Chimera |  |  |  | VH1/VK1 (antibody, human IgG4 S228P, kappa, V domains shown, humanized HJ8.5 variant, combination of VH1 and VK1) VH: EVKVVESGGGLVQPGGSMKLSCVVSGFTFSNYWVNWVRQAPGKGLEWVAQIRLKSDNYATHYEESVKGRFTISRDDSKSSVYLQMNNLRAEDSGIYYCTNWEDYWGQGTTVTVSS VL: DIVLTQSPDSLAVSLGERATISCRASQSVSTSRYSYIHWYQQKPGQPPKLLIKYASNLESGVPSRFSGSGSGTDFTLNIHPLEEEDFATYYCHHSWEIPLTFGQGTKLEIKR | 
4 | 1.16 relative to Chimera | 1.42 relative to Chimera |  |  |  | 1.04 relative to Chimera |  |  |  | VH3/VK1 (antibody, human IgG4 S228P, kappa, V domains shown, humanized HJ8.5 variant, combination of VH3 and VK1) VH: EVQVVESGGGLVQPGGSLKLSCVVSGFTFSNYWVNWVRQAPGKGLEWVAQIRLKSDNYATHYEESVKGRFTISRDDSKNSVYLQMNSLRAEDTAIYYCTNWEDYWGQGTTVTVSS VL: DIVLTQSPDSLAVSLGERATISCRASQSVSTSRYSYIHWYQQKPGQPPKLLIKYASNLESGVPSRFSGSGSGTDFTLNIHPLEEEDFATYYCHHSWEIPLTFGQGTKLEIKR | 
5 | 0.89 relative to Chimera | 1.22 relative to Chimera |  |  |  | 1.51 relative to Chimera |  |  |  | VH3/VK4 (antibody, human IgG4 S228P, kappa, humanized HJ8.5 variant, combination of VH3 and VK4) heavy chain: not shown light chain: DIVMTQSPDSLAVSLGERATISCRASQSVSTSRYSYIHWYQQKPGQPPKLLIKYASNLESGVPSRFSGSGSGTDFTLTISSLQPEDFATYYCHHSWEIPLTFGQGTKLEIKRTVAAPSVFIFPPSDEQLKSGTASVVCLLNNFYPREAKVQWKVDNALQSGNSQESVTEQDSKDSTYSLSSTLTLSKADYEKHKVYACEVTHQGLSSPVTKSFNRGEC | 
6 | 1.43 relative to Chimera | 1.02 relative to Chimera |  |  |  | 1.02 relative to Chimera |  |  |  | VH2/VK1 (antibody, human IgG4 S228P, kappa, V domains shown, humanized HJ8.5 variant, combination of VH2 and VK1) VH: EVKVVESGGGLVQPGGSLKLSCVVSGFTFSNYWVNWVRQAPGKGLEWVAQIRLKSDNYATHYEESVKGRFTISRDDSKSSVYLQMNSLRAEDTGIYYCTNWEDYWGQGTTVTVSS VL: DIVLTQSPDSLAVSLGERATISCRASQSVSTSRYSYIHWYQQKPGQPPKLLIKYASNLESGVPSRFSGSGSGTDFTLNIHPLEEEDFATYYCHHSWEIPLTFGQGTKLEIKR | 
7 | 0.84 relative to Chimera | 1.34 relative to Chimera | 1.65 nM | 0.000454 s⁻¹ | 276000 M⁻¹ s⁻¹ | 0.93 relative to Chimera | 2.2 nM | 0.000559 s⁻¹ | 254000 M⁻¹ s⁻¹ | VH3/VK3 humanized anti-tau antibody (antibody, human IgG4 S228P, kappa, Humanized variant of HJ8.5) heavy: not shown light: DIVLTQSPDSLAVSLGERATISCRASQSVSTSRYSYIHWYQQKPGQPPKLLIKYASNLESGVPSRFSGSGSGTDFTLTISSLQPEDFATYYCHHSWEIPLTFGQGTKLEIKRTVAAPSVFIFPPSDEQLKSGTASVVCLLNNFYPREAKVQWKVDNALQSGNSQESVTEQDSKDSTYSLSSTLTLSKADYEKHKVYACEVTHQGLSSPVTKSFNRGEC | Kd [8]: 1.92 nM; koff [8]: 0.000507 s⁻¹; kon [8]: 265000 M⁻¹ s⁻¹
8 | 1.36 relative to Chimera | 1.03 relative to Chimera |  |  |  | 1.37 relative to Chimera |  |  |  | VH2/VK4 (antibody, human IgG4 S228P, kappa, humanized HJ8.5 variant, combination of VH2 and VK4) heavy chain: not shown light chain: DIVMTQSPDSLAVSLGERATISCRASQSVSTSRYSYIHWYQQKPGQPPKLLIKYASNLESGVPSRFSGSGSGTDFTLTISSLQPEDFATYYCHHSWEIPLTFGQGTKLEIKRTVAAPSVFIFPPSDEQLKSGTASVVCLLNNFYPREAKVQWKVDNALQSGNSQESVTEQDSKDSTYSLSSTLTLSKADYEKHKVYACEVTHQGLSSPVTKSFNRGEC | 
9 | 1.17 relative to Chimera | 0.97 relative to Chimera | 1.83 nM | 0.000533 s⁻¹ | 292000 M⁻¹ s⁻¹ | 0.94 relative to Chimera | 2.44 nM | 0.000653 s⁻¹ | 268000 M⁻¹ s⁻¹ | VH2/VK3 humanized anti-tau antibody (antibody, human IgG4 S228P, kappa, Humanized variant of HJ8.5) heavy: not shown light: DIVLTQSPDSLAVSLGERATISCRASQSVSTSRYSYIHWYQQKPGQPPKLLIKYASNLESGVPSRFSGSGSGTDFTLTISSLQPEDFATYYCHHSWEIPLTFGQGTKLEIKRTVAAPSVFIFPPSDEQLKSGTASVVCLLNNFYPREAKVQWKVDNALQSGNSQESVTEQDSKDSTYSLSSTLTLSKADYEKHKVYACEVTHQGLSSPVTKSFNRGEC | Kd [9]: 2.13 nM; koff [9]: 0.000593 s⁻¹; kon [9]: 280000 M⁻¹ s⁻¹
10 | 2.05 relative to Chimera | 1.02 relative to Chimera |  |  |  | 1.41 relative to Chimera |  |  |  | VH1/VK4 (antibody, human IgG4 S228P, kappa, humanized HJ8.5 variant, combination of VH1 and VK4) heavy chain: not shown light chain: DIVMTQSPDSLAVSLGERATISCRASQSVSTSRYSYIHWYQQKPGQPPKLLIKYASNLESGVPSRFSGSGSGTDFTLTISSLQPEDFATYYCHHSWEIPLTFGQGTKLEIKRTVAAPSVFIFPPSDEQLKSGTASVVCLLNNFYPREAKVQWKVDNALQSGNSQESVTEQDSKDSTYSLSSTLTLSKADYEKHKVYACEVTHQGLSSPVTKSFNRGEC | 
11 |  |  | 1.94 nM | 0.000572 s⁻¹ | 295000 M⁻¹ s⁻¹ |  | 2.24 nM | 0.000626 s⁻¹ | 280000 M⁻¹ s⁻¹ | VH1/VK3 humanized anti-tau antibody (antibody, human IgG4 S228P, kappa, Humanized variant of HJ8.5) heavy: not shown light: DIVLTQSPDSLAVSLGERATISCRASQSVSTSRYSYIHWYQQKPGQPPKLLIKYASNLESGVPSRFSGSGSGTDFTLTISSLQPEDFATYYCHHSWEIPLTFGQGTKLEIKRTVAAPSVFIFPPSDEQLKSGTASVVCLLNNFYPREAKVQWKVDNALQSGNSQESVTEQDSKDSTYSLSSTLTLSKADYEKHKVYACEVTHQGLSSPVTKSFNRGEC | Kd [10]: 2.09 nM; koff [10]: 0.000599 s⁻¹; kon [10]: 287000 M⁻¹ s⁻¹
12 | 1.79 relative to Chimera | 1.9 relative to Chimera |  |  |  | 1.31 relative to Chimera |  |  |  | VH4/VK3 (antibody, human IgG4 S228P, kappa, V domains shown, humanized HJ8.5 variant, combination of VH4 and VK3) VH: EVQLVESGGGLVQPGGSLKLSCVVSGFTFSNYWVNWVRQAPGKGLEWVAQIRLKSDNYATHYEESVKGRFTISRDDSKNSLYLQMNSLRAEDTAIYYCTNWEDYWGQGTTVTVSS VL: DIVLTQSPDSLAVSLGERATISCRASQSVSTSRYSYIHWYQQKPGQPPKLLIKYASNLESGVPSRFSGSGSGTDFTLTISSLQPEDFATYYCHHSWEIPLTFGQGTKLEIKR | 
